{
  "source": "paper PMC6137059",
  "binders": {"B1": {"name": "oriTmin23 Alexa488 (dsDNA)", "DNA 1": "AAGGAACTTTACAGGGAACTTTA", "DNA 2": "TAAAGTTCCCTGTAAAGTTCCTT"}},
  "biological_target": "TcpK (Clostridium perfringens (plasmid pCW3), UniProt Q1PLI2 1-102)",
  "test": "fluorescence polarization; SPR: 10 mM HEPES pH 7.4, 200 mM NaCl, 3 mM EDTA, 0.05% Tween 20, 20 C; […]",
  "details": "protein: recombinant; tags: N-terminal His6-TEV, cleaved; chain copies: 2; label: 5' Alexa488; blunt",
  "data": [
    {"binder": "B1", "values": [
      {"measurement": "Kd", "result": 590, "unit": "nM"}
    ]}
  ]
}
